Assay results taken from publication doi:10.1101/2020.04.11.036434.

target: PTEN (WT), recombinant insect-cell purified (UniProt P60484); test: SPR

Row | Substance | fold decrease in affinity against P-Rex2 (WT) [fold]
1 | P-Rex2 (674-683) P-Rex1 sequence-swap mutant | 4
2 | P-Rex2 (904-912) P-Rex1 sequence-swap mutant | 7
3 | P-Rex2 (922-931) P-Rex1 sequence-swap mutant | 6
